Results on one substance are retold here after US20140371148A1.

The target in this experiment is ACE from rabbit lung (rabbit) (UniProt P12822). As to the kind of experiment: cell-based or functional assay.
Sequence of ACE from rabbit lung (rabbit) (P12822 34-1310 limits assumed, form in doubt): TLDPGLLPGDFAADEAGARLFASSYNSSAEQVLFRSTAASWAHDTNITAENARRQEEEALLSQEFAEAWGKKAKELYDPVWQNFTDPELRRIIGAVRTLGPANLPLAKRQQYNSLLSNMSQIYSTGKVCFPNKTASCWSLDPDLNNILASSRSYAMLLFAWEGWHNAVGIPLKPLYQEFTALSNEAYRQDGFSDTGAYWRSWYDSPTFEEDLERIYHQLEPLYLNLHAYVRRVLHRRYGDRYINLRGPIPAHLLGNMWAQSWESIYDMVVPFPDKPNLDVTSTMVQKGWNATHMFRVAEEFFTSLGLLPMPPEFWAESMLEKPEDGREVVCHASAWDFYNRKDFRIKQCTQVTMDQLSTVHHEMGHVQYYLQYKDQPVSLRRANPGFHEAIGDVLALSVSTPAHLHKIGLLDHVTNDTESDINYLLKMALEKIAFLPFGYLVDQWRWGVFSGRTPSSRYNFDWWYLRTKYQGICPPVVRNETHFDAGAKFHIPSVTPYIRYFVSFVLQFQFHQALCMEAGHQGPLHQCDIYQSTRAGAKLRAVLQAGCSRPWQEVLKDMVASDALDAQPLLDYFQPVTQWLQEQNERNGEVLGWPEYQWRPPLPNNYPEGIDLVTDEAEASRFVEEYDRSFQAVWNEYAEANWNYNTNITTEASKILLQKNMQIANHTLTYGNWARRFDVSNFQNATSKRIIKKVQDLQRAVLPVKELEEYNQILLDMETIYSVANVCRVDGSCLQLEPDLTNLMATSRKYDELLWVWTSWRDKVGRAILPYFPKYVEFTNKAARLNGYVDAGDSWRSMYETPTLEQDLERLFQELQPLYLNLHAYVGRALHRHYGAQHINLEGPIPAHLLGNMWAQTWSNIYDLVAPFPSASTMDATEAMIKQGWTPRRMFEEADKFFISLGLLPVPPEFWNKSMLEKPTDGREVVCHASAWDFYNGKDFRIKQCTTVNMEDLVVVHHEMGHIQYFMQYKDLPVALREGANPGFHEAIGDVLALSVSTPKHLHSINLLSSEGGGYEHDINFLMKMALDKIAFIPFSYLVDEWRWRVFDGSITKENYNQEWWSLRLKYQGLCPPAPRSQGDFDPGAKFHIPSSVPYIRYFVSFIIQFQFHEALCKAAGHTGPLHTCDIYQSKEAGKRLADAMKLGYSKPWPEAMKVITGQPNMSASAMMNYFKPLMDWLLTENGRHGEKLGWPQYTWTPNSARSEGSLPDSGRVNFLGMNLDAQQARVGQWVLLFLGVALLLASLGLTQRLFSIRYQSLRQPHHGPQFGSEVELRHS

In turn, “GLP-1-(7-37)-γ-Abu-N^ε2Lys-(Pyr)-WAP-OH (peptide)” came in with an ACE inhibition IC50 of over 10 µM.
